Data on 3 molecules can be found in article PMC4457860, “In Vitro Interaction of the Housekeeping SecA1 with the Accessory SecA2 Protein of Mycobacterium tuberculosis” (PLoS ONE, 2015).

In data set [1] the target is Mycobacterium tuberculosis SecA1 (unlabeled) (Mycobacterium tuberculosis strain H37Rv) (UniProt P9WGP5). Put plainly: SEC; Superdex 200 10/300 GL, 0.5 ml/min, 20 mM HEPES-KOH pH 7.5, 2 mM MgCl2, 50 mM arginine, low salt (30 mM KCl); protein 2-5 mg/ml; mass estimated with protein standards.
Data set [2] deals with Escherichia coli SecA labeled with Cy5 (E. coli) (UniProt P10408). Kind of data set: MST; Monolith NT.115; unlabeled protein (1 nM to 5 μM) titrated into 25 nM Cy5-labeled protein, mixed in 300 mM KCl, then diluted into low salt buffer (25 mM HEPES-KOH pH 7.5, 30 mM KCl, 2 mM MgCl2, 50 mM arginine); Hill fit, apparent Kd; dimer to monomers.
Data set [3] deals with the molecule itself. Put plainly: SEC; Superdex 200 10/300 GL, 0.5 ml/min, 20 mM HEPES-KOH pH 7.5, 2 mM MgCl2, 50 mM arginine, low salt (30 mM KCl); protein 2-5 mg/ml; mass estimated with protein standards.

Take “Mycobacterium tuberculosis SecA1 (unlabeled) (from UniProt P9WGP5 1-949) (natural protein)”: in data set [1], the stoichiometry N is 2.

As to “Escherichia coli SecA (unlabeled) (from UniProt P10408 1-901) (natural protein)”, the Kd in data set [2] was found to be 31 nM.

B1: Mycobacterium tuberculosis SecA2 (unlabeled) (natural protein)
chain: MVPKTTRAQPGRLSSRFWRLLGASTEKNRSRSLADVTASAEYDKEAADLSDEKLRKAAGLLNLDDLAESADIPQFLAIAREAAERRTGLRPFDVQLLGALRMLAGDVIEMATGEGKTLAGAIAAAGYALAGRHVHVVTINDYLARRDAEWMGPLLDAMGLTVGWITADSTPDERRTAYDRDVTYASVNEIGFDVLRDQLVTDVNDLVSPNPDVALIDEADSVLVDEALVPLVLAGTTHRETPRLEIIRLVAELVGDKDADEYFATDSDNRNVHLTEHGARKVEKALGGIDLYSEEHVGTTLTEVNVALHAHVLLQRDVHYIVRDDAVHLINASRGRIAQLQRWPDGLQAAVEAKEGIETTETGEVLDTITVQALINRYATVCGMTGTALAAGEQLRQFYQLGVSPIPPNKPNIREDEADRVYITTAAKNDGIVEHITEVHQRGQPVLVGTRDVAESEELHERLVRRGVPAVVLNAKNDAEEARVIAEAGKYGAVTVSTQMAGRGTDIRLGGSDEADHDRVAELGGLHVVGTGRHHTERLDNQLRGRAGRQGDPGSSVFFSSWEDDVVAANLDHNKLPMATDENGRIVSPRTGSLLDHAQRVAEGRLLDVHANTWRYNQLIAQQRAIIVERRNTLLRTVTAREELAELAPKRYEELSDKVSEERLETICRQIMLYHLDRGWADHLAYLADIRESIHLRALGRQNPLDEFHRMAVDAFASLAADAIEAAQQTFETANVLDHEPGLDLSKLARPTSTWTYMVNDNPLSDDTLSALSLPGVFR
notes: No tag; molecular mass 85 kDa on SDS-PAGE; also called PIP152
As for B1, the “stoichiometry N” value in data set [3] is 2.
